Data from patent US7754689B2, “Finger-1 peptide analogs of the TGF-β superfamily” (Wyeth LLC, priority 2006, dated 2010).
No end group written: not given here.

T1: BMP-3 (Homo sapiens, UniProt P12645)
T1 construct: a propeptide fragment copurifies along with the mature protein; made in house; host or cells: CHO cells (conditioned medium)
T1 sequence (P12645 363-472): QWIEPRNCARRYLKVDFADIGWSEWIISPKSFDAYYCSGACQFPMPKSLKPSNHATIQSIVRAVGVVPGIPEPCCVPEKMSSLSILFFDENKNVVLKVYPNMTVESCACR

T2: BMP-12 (Homo sapiens, UniProt Q7Z4P5)
T2 sequence (Q7Z4P5 322-450): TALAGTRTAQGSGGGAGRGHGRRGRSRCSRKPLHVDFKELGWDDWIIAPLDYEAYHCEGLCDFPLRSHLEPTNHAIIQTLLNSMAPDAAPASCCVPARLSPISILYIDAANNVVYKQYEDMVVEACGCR

T3: GDF-9 (Homo sapiens, UniProt O60383)
T3 sequence (O60383 320-454): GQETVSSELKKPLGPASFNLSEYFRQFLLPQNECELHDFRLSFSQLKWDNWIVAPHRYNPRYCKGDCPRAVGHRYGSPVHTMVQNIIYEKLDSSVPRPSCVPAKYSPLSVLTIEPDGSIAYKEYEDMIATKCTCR

T4: BMP-12 (UniProt Q7Z4P5 322-450, limits assumed)
T4 construct: also called BMP12/GDF7
T4 sequence (looked up): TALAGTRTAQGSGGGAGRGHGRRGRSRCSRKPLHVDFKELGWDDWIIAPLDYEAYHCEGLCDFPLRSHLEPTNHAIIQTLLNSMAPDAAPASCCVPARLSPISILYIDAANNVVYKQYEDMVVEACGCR


Columns and labels:
BMP-3 = target: T1, BMP-3; test: Affinity column chromatography, capture and elution of BMP-3; format: binding; conditions: for capture of BMP-3 by column with immobilized ligand: CHO-conditioned media with 1.2 M NaCl (high salt) load; for elution of BMP-3 from column with immobilized ligand: washes, then gradient to 50 mM acetic acid pH 3, then 6M GuHCl
Description: (§1) BMP-12 was immobilized on NHS-activated Sepharose™ beads at a ratio of about 20 mg:4 mL and the resulting media combined with water or neutral saline buffer to prepare a column. CHO-conditioned media augmented with 1.2 M NaCl was loaded onto the column. In some cases, the media was preconcentrated with respect to BMP before loading. The column was washed with 15 CV (column volumes) of 1.2 M NaCl in 40 mM Na2HPO4 at pH 7.2, followed by 0.5 M arginine/0.5 M NaCl in 20 mM Tris at pH 7.5 (15 CV) and a low salt wash (50 mM ammonium acetate at pH 7, 15 CV). […] Finally, the column was eluted with 5CV of the acetic acid solution with 6M guanidine hydrochloride (GuHCl).
The eluate was analyzed using HPLC.
4 mL of the resulting resin (1.6×2.0 cm) was used to prepare a column. The column was loaded with BMP-3 and eluted as in Example 1.

BMP-12 [1] = target: T2, BMP-12; test: Affinity column chromatography, capture and elution of BMP-12; format: binding; conditions: for capture of BMP-12 by column with immobilized ligand: high salt / high ionic strength load; for elution of BMP-12 from column with immobilized ligand: washes, then gradient to 50 mM acetic acid pH 3, then 6M GuHCl
Description: as §1
BMP-12 was loaded and eluted from a BMP-12 affinity column as in Example 1.
BMP-12 was purified using a column prepared with the BMP-12 wild type peptide described in Example 7.

GDF-9 = target: T3, GDF-9; test: Affinity column chromatography, capture and elution of GDF-9; format: binding
Description: as §1
A lower molecular weight contaminant was also present.

BMP-12 [2] = target: T4, BMP-12; test: peptide resin, filter plate; load 6: 1M CHES pH 9.7
Description: (§2) The coupled resins, plus an unconjugated resin for use as a control, were suspended in 16% ethanol, 150 mM NaCl, and 20 mM Tris buffer at pH 7.5 at a 25% v/v ratio (e.g., 25% ethanol, 75% Tris buffer). A Tecan liquid-handling robot was employed to aliquot 200 μL of each slurry into one of eight rows of a 96 well polystyrene filter plate (0.45 μm hydrophilic filters, Whatman catalog number 770-1806). Spinning at 1200 g for 3 min removed the liquid phase, leaving 50 μL of wet resin on the filters. The resins were then equilibrated with the loading buffers listed in Table 6 (K is a coefficient characterizing the strength of protein binding to a particular resin in a particular buffer). […] The resins were loaded by transferring 150 μL from the load plate to the filter plate and then incubating 20 min on a shaking platform to facilitate binding. The filter plate was spun down and the filtrate collected in a 96 well UV plate. The protein concentration in the filtrate, or flow-through, was calculated as $(A280-A320)/1.3$. The filter plate was then washed with 150 μL of 100 mM acetic acid, followed by 150 μL of 4M guanidine-HCl and 50 mM sodium acetate at pH 4.0. The protein concentration was measured in the new filtrate as described above. […] Flow-through and acetic acid elution samples from column 4 of the plate (loaded with MES pH 6) were analyzed on a gel (FIG. 14).

BMP-12 [3] = target: T4, BMP-12; test: peptide resin, filter plate; load 4: 25 mM MES pH 6.0
Description: as §2

BMP-12 [4] = target: T4, BMP-12; test: peptide resin, filter plate; load 5: 25 mM HEPES pH 7.0
Description: as §2

BMP-12 [5] = target: T4, BMP-12; test: peptide resin, filter plate; load 3: 25 mM Na Acetate pH 5.0
Description: as §2

BMP-12 [6] = target: T4, BMP-12; test: peptide resin, filter plate; load 1: 50 mM Acetic Acid, 0.1 M NaCl, pH 2.9
Description: as §2

BMP-12 [7] = target: T4, BMP-12; test: peptide resin, filter plate; load 2: 50 mM Acetic Acid, 0.1 M NaCl, pH 4.0
Description: as §2

BMP-12 [8] = target: T4, BMP-12; test: peptide resin, filter plate; load 10: 50 mM Tris, 0.1 M NaCl, 40% MPD, pH 8.0
Description: as §2

BMP-12 [9] = target: T4, BMP-12; test: peptide resin, filter plate; load 12: 50 mM Tris, 0.1 M NaCl, 20% MPD, pH 8.0
Description: as §2

BMP-12 [10] = target: T4, BMP-12; test: peptide resin, filter plate; load 11: 50 mM Tris, 0.25 M NaCl, 30% MPD, pH 8.0
Description: as §2

Molecule	Flow-through K (BMP-12 [2])	Flow-through conc (BMP-12 [2]) [mg/mL]	100 mM HAc elution K (BMP-12 [3])	100 mM HAc elution conc (BMP-12 [3]) [mg/mL]	4M Gnd, 50 mM NaAc pH 4 Strip Conc (BMP-12 [3]) [mg/ml]	Flow-through K (BMP-12 [3])	Flow-through conc (BMP-12 [3]) [mg/mL]	100 mM HAc elution K (BMP-12 [4])	100 mM HAc elution conc (BMP-12 [4]) [mg/mL]	4M Gnd, 50 mM NaAc pH 4 Strip Conc (BMP-12 [4]) [mg/ml]	Flow-through K (BMP-12 [4])	Flow-through conc (BMP-12 [4]) [mg/mL]	100 mM HAc elution K (BMP-12 [5])	100 mM HAc elution conc (BMP-12 [5]) [mg/mL]	4M Gnd, 50 mM NaAc pH 4 Strip Conc (BMP-12 [5]) [mg/ml]	Flow-through K (BMP-12 [5])	Flow-through conc (BMP-12 [5]) [mg/mL]	100 mM HAc elution K (BMP-12 [6])	100 mM HAc elution conc (BMP-12 [6]) [mg/mL]	4M Gnd, 50 mM NaAc pH 4 Strip Conc (BMP-12 [6]) [mg/ml]	further results
SDVGWNDWIVAPPGYHAFYCHGEK [SEQ ID NO: 1]																					capture of BMP-3 by column with immobilized ligand (BMP-3): effectively captured; elution of BMP-3 from column with immobilized ligand (BMP-3): eluted, along with a propeptide fragment, in acetic acid; capture of BMP-12 by column with immobilized ligand (BMP-12 [1]): effectively captured; elution of BMP-12 from column with immobilized ligand (BMP-12 [1]): eluted with acetic acid; elution of GDF-9 from column with immobilized ligand (GDF-9): eluted with both 500 mM arginine and acetic acid; capture of GDF-9 by column with immobilized ligand (GDF-9; high salt solution load): effectively captured
KELGWDDWIIAPLDYEAYHCEGLC [SEQ ID NO: 2]																					capture of BMP-3 by column with immobilized ligand (BMP-3): effectively captured; effectiveness of immobilized ligand compared with the BMP-2 mutant (BMP-3; in general): less effective than the BMP-2 mutant; elution of BMP-3 from column with immobilized ligand (BMP-3): eluted in acetic acid; capture of BMP-12 by column with immobilized ligand (BMP-12 [1]): effectively captured; elution of BMP-12 from column with immobilized ligand (BMP-12 [1]): eluted with acetic acid
Ac-SDVGWNDWIVAPPGYHAFYCHGEK [BMP2 N-trun peptide 750]	-1	0.577	1	0.311	0.06	36	0.037	0	0.187	0.046	2	0.29	1	0.226	0.072	6	0.163	1	0.096	0.044	Flow-through K (BMP-12 [6]): 1; Flow-through conc (BMP-12 [6]): 0.337 mg/mL; 100 mM HAc elution K (BMP-12 [7]): 2; 100 mM HAc elution conc (BMP-12 [7]): 0.194 mg/mL; 4M Gnd, 50 mM NaAc pH 4 Strip Conc (BMP-12 [7]): 0.087 mg/ml; Flow-through K (BMP-12 [7]): 6; Flow-through conc (BMP-12 [7]): 0.164 mg/mL; Flow-through K (BMP-12 [8]): 0; Flow-through conc (BMP-12 [8]): 0.423 mg/mL; Flow-through K (BMP-12 [9]): 1; Flow-through conc (BMP-12 [9]): 0.364 mg/mL; Flow-through K (BMP-12 [10]): 1; Flow-through conc (BMP-12 [10]): 0.342 mg/mL
Ac-SDVGWNDWIVAPPGYHAFYSHGEK [BMP2 N-trun 1S peptide 751]	-1	0.647	1	0.355	0.053	38	0.035	0	0.254	0.044	4	0.216	1	0.285	0.07	9	0.124	1	0.102	0.046	Flow-through K (BMP-12 [6]): 1; Flow-through conc (BMP-12 [6]): 0.349 mg/mL; 100 mM HAc elution K (BMP-12 [7]): 1; 100 mM HAc elution conc (BMP-12 [7]): 0.219 mg/mL; 4M Gnd, 50 mM NaAc pH 4 Strip Conc (BMP-12 [7]): 0.089 mg/ml; Flow-through K (BMP-12 [7]): 6; Flow-through conc (BMP-12 [7]): 0.156 mg/mL; Flow-through K (BMP-12 [8]): 0; Flow-through conc (BMP-12 [8]): 0.435 mg/mL; Flow-through K (BMP-12 [9]): 1; Flow-through conc (BMP-12 [9]): 0.411 mg/mL; Flow-through K (BMP-12 [10]): 0; Flow-through conc (BMP-12 [10]): 0.425 mg/mL
Ac-VAPPGYHAFYSHGEK [BMP2 N-trunc_2 peptide 745]	-1	0.626	-1	0.104	0.027	0	0.426	0	0.077	0.021	1	0.397	0	0.073	0.026	1	0.407	1	0.058	0.024	Flow-through K (BMP-12 [6]): 1; Flow-through conc (BMP-12 [6]): 0.397 mg/mL; 100 mM HAc elution K (BMP-12 [7]): 1; 100 mM HAc elution conc (BMP-12 [7]): 0.057 mg/mL; 4M Gnd, 50 mM NaAc pH 4 Strip Conc (BMP-12 [7]): 0.026 mg/ml; Flow-through K (BMP-12 [7]): 1; Flow-through conc (BMP-12 [7]): 0.41 mg/mL; Flow-through K (BMP-12 [8]): 0; Flow-through conc (BMP-12 [8]): 0.464 mg/mL; Flow-through K (BMP-12 [9]): 0; Flow-through conc (BMP-12 [9]): 0.435 mg/mL; Flow-through K (BMP-12 [10]): 0; Flow-through conc (BMP-12 [10]): 0.431 mg/mL
Ac-LYVSDVGWNDWIVK (not fully specified (residue 3); printed as Ac-LYV**SDVGWNDWIVK; also: ** after V3 not explained) [BMP2 C-trunc_2 peptide 746]	-1	0.71	1	0.32	0.07	47	0.029	1	0.249	0.068	6	0.162	1	0.296	0.1	18	0.07	3	0.154	0.135	Flow-through K (BMP-12 [6]): 7; Flow-through conc (BMP-12 [6]): 0.15 mg/mL; 100 mM HAc elution K (BMP-12 [7]): 3; 100 mM HAc elution conc (BMP-12 [7]): 0.208 mg/mL; 4M Gnd, 50 mM NaAc pH 4 Strip Conc (BMP-12 [7]): 0.162 mg/ml; Flow-through K (BMP-12 [7]): 25; Flow-through conc (BMP-12 [7]): 0.052 mg/mL; Flow-through K (BMP-12 [8]): 0; Flow-through conc (BMP-12 [8]): 0.505 mg/mL; Flow-through K (BMP-12 [9]): 0; Flow-through conc (BMP-12 [9]): 0.486 mg/mL; Flow-through K (BMP-12 [10]): 0; Flow-through conc (BMP-12 [10]): 0.515 mg/mL
